The results in this text go back to the RNAGym collection of RNA variant scans (doi:10.7554/elife.80360).

B1: Twister Ribozyme (parent)
chain: AACACUGCCAAUGCCGGUCCCAAGCCCGGAUAAAAGUGGAGGGGGCGG

In this data set the parent is B1. In words: self-cleavage, relative activity (ratio to wild type); higher = more cleavage; co-transcriptional.
As to AACACUACCAAUGCCGGUCCCAAGCCCGGAUAAAAGUGGGGGGGGCGG [G7A A40G], the self-cleavage came to 0.157.
The result for AACACUGCAAAUGCCGGUCCCAAGACCGGAUAAAAGUGGAGGGGGCGG [C9A C25A] reads 0.0586.
The result for AACACUGCCAAUGCCGGUCCUAAGCGCGGAUAAAAGUGGAGGGGGCGG [C21U C26G] reads 0.0581; that for AACACUGCCAAUGCCGGUCCCAAGCCCCGAUACAAGUGGAGGGGGCGG [G28C A33C], 0.745.
As for AACACUGCCAAUGCCGGUCCCAAGGCCGGAUAAAAGUGGAGGGGGCUG [C25G G47U], the self-cleavage is 0.155.
AACACUGCCAAUGGCGGUCACAAGCCCGGAUAAAAGUGGAGGGGGCGG [C14G C20A]: the self-cleavage stood at 0.104.
Take AACGCUGCCAAUGCCGGUCCCAAGCCAGGAUAAAAGUGGAGGGGGCGG [A4G C27A]: the self-cleavage turned out to be 0.279.
With AACACUGCCAAUGCCGGUCCCAAGCCCGAAUAAAAGUGGAGGGGGCGA [G29A G48A], the self-cleavage amounted to 0.874.
The figure for AACACUGCCACUGCCGGUCCCAAGCCAGGAUAAAAGUGGAGGGGGCGG [A11C C27A] is 0.176; for AACAUUGCCAAUGCCGGUCCCAAGCCCGCAUAAAAGUGGAGGGGGCGG [C5U G29C] it is 0.454.
The result for AACACUGACAAUGCCGGUCCCAAGCCCGGAUAAAAGUGGAGGGUGCGG [C8A G44U] reads 0.271.
The figure for AACACUGACAAUGCCGGUCCCAAGCCCGGAUAAAAGUGGAGGGCGCGG [C8A G44C] is 0.276.
In the case of AACACUGCCAAUGCCGGGCCGAAGCCCGGAUAAAAGUGGAGGGGGCGG [U18G C21G], the self-cleavage came out at 0.0716.
As to AACACUGCCAAUGCCGGUACCAAGCCCGGAUUAAAGUGGAGGGGGCGG [C19A A32U], the self-cleavage was 0.189.
Take AUCACUGCCAAUGCCGGUCCCAAGCCCGGAUAAAAGUGGAGGGGUCGG [A2U G45U]: the self-cleavage was determined as 0.344.
The figure for AACACUGCCCAUGCCGGUCCCAAGCCCGGAUAAAAGUGGAGUGGGCGG [A10C G42U] is 0.26; for AACACUGCCAUUGCCGGUCCCAAGCCCGGAUAAAAGUGGAGGCGGCGG [A11U G43C] it is 0.234.
The result for AACACUGCCAAUGCCGUUCCCAAGCCCGGAUAAAAGUGGAGAGGGCGG [G17U G42A] reads 0.104; that for UACACUGCCAAUGCCUGUCCCAAGCCCGGAUAAAAGUGGAGGGGGCGG [A1U G16U], 0.0446; that for AACACGGCCAAUGCCGGUCCCAAGCCGGGAUAAAAGUGGAGGGGGCGG [U6G C27G], 0.0245.
The figure for AACACUGCCAAUGCCGGUCCCAAGCCGGGAUAAAAGUGGAGGGGGCGG [C27G] is 0.0872; for AACACUGUCAAUGCCGGUCCCAAGCCCGGAUAAAAGUGGAGGGGACGG [C8U G45A] it is 0.492.
For the variant AACACUGCCAAUGCCGGCCCCAAGCCCGGGUAAAAGUGGAGGGGGCGG [U18C A30G], the self-cleavage amounted to 0.713.
The result for AACACUGCCUAUGCCGGUCCCAAGCCCCGAUAAAAGUGGAGGGGGCGG [A10U G28C] reads 0.768; that for AACAAUGCCAAUGCCGGUCCCAAGCCCGGAGAAAAGUGGAGGGGGCGG [C5A U31G], 0.524.
The result for AACACUGCCGAUGCCGGUCCCAAGCCCGGAUAAAAGUGUAGGGGGCGG [A10G G39U] reads 0.287.
For AACACUGCCAAUGCCGGUCGCAACCCCGGAUAAAAGUGGAGGGGGCGG [C20G G24C], the self-cleavage is 0.123.
The figure for AACACUGCCAAUGCCGGUGCCAGGCCCGGAUAAAAGUGGAGGGGGCGG [C19G A23G] is 0.0717; for AACACUGCGAAUGCCGGUCCCAAGCCCGGAUAAAAGAGGAGGGGGCGG [C9G U37A] it is 0.208.
For AACACUGCCAAUGCCGGUCCUAAGCCCGGAUUAAAGUGGAGGGGGCGG [C21U A32U], the self-cleavage worked out at 0.127.
With AACACUGCCAAUGCCGGUCCCAAGCCCAGCUAAAAGUGGAGGGGGCGG [G28A A30C], the self-cleavage was 0.935.
Turning to AACACUGCCAAUGCCGGUCCCAAGCCCGGAUAAAUUUGGAGGGGGCGG [A35U G36U], the self-cleavage stood at 0.472.
The result for AACACUGCGAAUGCCGGUCCCAAGCCCGGAUAAACGUGGAGGGGGCGG [C9G A35C] reads 0.556; that for AACACUGCCAAUGCCGGUCCCAAGCACGGAUAAAAGUGGAGGGGGCGG [C26A], 0.706; that for AACACUCCCAAUGCCGGUCCCAGGCCCGGAUAAAAGUGGAGGGGGCGG [G7C A23G], 0.13.
On to AACACUGCCAAUGCGGGUCGCAAGCCCGGAUAAAAGUGGAGGGGGCGG [C15G C20G], for which the self-cleavage turned out to be 0.0898.
Take AACACUGCCAAUGUCGGUCCGAAGCCCGGAUAAAAGUGGAGGGGGCGG [C14U C21G]: the self-cleavage was 0.108.
As to AACACUGCCAUUGCCGGUCCCAAGCCCGGAUAAAAGUGGUGGGGGCGG [A11U A40U], the self-cleavage was 0.142.
The result for AACAAUGCCAAUGCCGGUCCCAAGCCCGGAUAAAAGUGGAGGGAGCGG [C5A G44A] reads 0.556; that for AACUCUGCCAAUGCUGGUCCCAAGCCCGGAUAAAAGUGGAGGGGGCGG [A4U C15U], 0.124.
The figure for AACACUGCCCAUGCUGGUCCCAAGCCCGGAUAAAAGUGGAGGGGGCGG [A10C C15U] is 0.942.
In the case of AACACUGCCAAUCCCGGACCCAAGCCCGGAUAAAAGUGGAGGGGGCGG [G13C U18A], the self-cleavage was found to be 0.067.
The figure for AACACUGCUAAUGCCGGUCCCAAGCCCGGAUAAAAGUGAAGGGGGCGG [C9U G39A] is 0.139; for AACACUGCCAAUGCCGGUCCCAAGCCCGGAUAUAACUGGAGGGGGCGG [A33U G36C] it is 0.174.
The figure for CACACUGCCGAUGCCGGUCCCAAGCCCGGAUAAAAGUGGAGGGGGCGG [A1C A10G] is 0.133; for AACACUGUCAAUGCCGGUCCCAAGCCCGGAUCAAAGUGGAGGGGGCGG [C8U A32C] it is 0.733.
The figure for AACACUGCCAAUGCCGGUCCCAAGGCCGGAUAGAAGUGGAGGGGGCGG [C25G A33G] is 0.148; for AACACUGCCAAUGCCGGUCCCAAGCCCGUAUAAUAGUGGAGGGGGCGG [G29U A34U] it is 0.666.
With AACACUGCCAAUGCCGGUCCCAUGCCCGGAUAAAAGUGGAGCGGGCGG [A23U G42C], the self-cleavage amounted to 0.148.
As to AACACUGCCAAUGCCGGUCCCAUGCCCGGAUAAAAGUGGAGAGGGCGG [A23U G42A], the self-cleavage was determined as 0.125.
For the variant AACGCUGGCAAUGCCGGUCCCAAGCCCGGAUAAAAGUGGAGGGGGCGG [A4G C8G], the self-cleavage was determined as 0.289.
In the case of AACACUGCCAAUGCCGGUCCCAACCCCGGAUAAAAGUGGAUGGGGCGG [G24C G41U], the self-cleavage was determined as 0.0978.
The result for AACACUGCCAAUGCCGGUCCCAAGCCCGGAUAAGAGUGGAGUGGGCGG [A34G G42U] reads 0.131; that for ACCACUGCCAAUGCCGGUGCCAAGCCCGGAUAAAAGUGGAGGGGGCGG [A2C C19G], 0.0832.
